Read-outs that look alike come from different tables or passages of the source. One block for each binder: values may come before it.
Key:
[1] = target: T1, human IGSF11 (VSIG3) expressed on the surface of cells (human, UniProt Q5DX21 23-431); test: FACS, IgG1 format, DMS 273 cells
T1 construct: one molecule for all cell lines; the cell line is named under assay; also called IGSF11-expressing cells; HEK-OE
T1 sequence: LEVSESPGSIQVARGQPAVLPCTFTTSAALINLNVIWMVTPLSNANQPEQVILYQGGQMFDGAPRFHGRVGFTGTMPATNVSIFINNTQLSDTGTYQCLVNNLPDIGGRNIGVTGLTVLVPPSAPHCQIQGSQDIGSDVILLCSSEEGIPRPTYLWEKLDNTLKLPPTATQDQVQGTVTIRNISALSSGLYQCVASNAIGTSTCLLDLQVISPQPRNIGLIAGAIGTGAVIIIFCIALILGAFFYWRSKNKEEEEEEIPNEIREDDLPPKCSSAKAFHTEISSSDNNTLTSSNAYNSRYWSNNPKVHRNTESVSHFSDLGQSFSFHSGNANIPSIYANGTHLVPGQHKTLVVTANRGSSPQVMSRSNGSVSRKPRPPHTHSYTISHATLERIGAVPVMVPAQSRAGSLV

[2] = target: CL-11 (C); test: FACS on CL-11 cells (do not express IGSF11; negative cell line) treated with IGSF11 siRNA (KD)
[3] = target: T2, IGSF11 (VSIG3), construct used in SPR and BLI not stated (UniProt Q5DX21 23-241, limits assumed); test: SPR (Biacore), IgG1 format; IGSF11 construct not stated
T2 sequence (looked up): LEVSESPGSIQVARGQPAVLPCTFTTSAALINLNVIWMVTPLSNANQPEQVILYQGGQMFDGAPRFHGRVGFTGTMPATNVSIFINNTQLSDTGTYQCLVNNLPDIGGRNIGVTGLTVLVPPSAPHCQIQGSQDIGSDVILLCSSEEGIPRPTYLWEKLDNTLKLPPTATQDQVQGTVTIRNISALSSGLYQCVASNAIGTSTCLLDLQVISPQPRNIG

[4] = target: T1, human IGSF11 (VSIG3) expressed on the …; test: FACS on M579-A2-luc cells treated with IGSF11 siRNA (KD: target knocked down, specificity control)
[5] = target: T1, human IGSF11 (VSIG3) expressed on the …; test: FACS on DMS 273 cells treated with IGSF11 siRNA (KD: target knocked down, specificity control)
[6] = target: CL-11 (C); test: FACS on CL-11 cells (do not express IGSF11; negative cell line) treated with scrambled control siRNA (SC)
[7] = target: T1, human IGSF11 (VSIG3) expressed on the …; test: FACS on DMS 273 cells treated with scrambled control siRNA (SC)
[8] = target: T1, human IGSF11 (VSIG3) expressed on the …; test: FACS on M579-A2-luc cells treated with scrambled control siRNA (SC)
[9] = target: T3, extracellular domain (ECD) of human IGSF11 (VSIG3), HIS-tagged (human, UniProt Q5DX21 23-241, biotinylated in the ELISA of Example 4 (site not stated)); test: ELISA, coated IGSF11-HIS, IgG1 format; EC50 grade (* >1 nM, ** 0.05-1 nM, *** 0.02-0.05 nM, **** <0.02 nM)
T3 construct: also called HIS-IGSF11; IGSF11-HIS; not shown: HIS6 tag
T3 sequence: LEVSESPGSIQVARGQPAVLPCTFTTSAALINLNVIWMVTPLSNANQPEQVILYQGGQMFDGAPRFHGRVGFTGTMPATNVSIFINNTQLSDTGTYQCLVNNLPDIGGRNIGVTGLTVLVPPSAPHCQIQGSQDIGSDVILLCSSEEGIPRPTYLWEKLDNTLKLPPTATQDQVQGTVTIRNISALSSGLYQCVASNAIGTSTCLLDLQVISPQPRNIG

[10] = target: T2, IGSF11 (VSIG3), construct used in SPR …; test: BLI (Octet), IgG1 format; IGSF11 construct not stated
[11] = target: T1, human IGSF11 (VSIG3) expressed on the …; test: FACS, IgG1 format, recombinant HEK cells expressing IGSF11 (HEK-OE)
[12] = target: T3, extracellular domain (ECD) of human …; test: blocking ELISA (Example 5): IgG titrated and pre-incubated with 200 nM his-tagged IGSF11 ECD, complexes added to immobilised VSIR-Fc, bound IGSF11 detected with anti-hexahistidine-HRP; blocked ligand: VSIR-Fc
[13] = target: T3, extracellular domain (ECD) of human …; test: ELISA: IGSF11-HIS coated, IgG1 antibody titrated, anti-human antibody-HRP and TMB; X-axis nM and Y-axis absorbance per legend paragraph 30
[14] = target: T3, extracellular domain (ECD) of human …; test: blocking ELISA (Example 5): IgG titrated and pre-incubated with 200 nM his-tagged IGSF11 ECD, complexes added to immobilised VSIR-Fc, bound IGSF11 detected with anti-hexahistidine-HRP; blocked ligand: VSIR-Fc; remark: listed apart in the source

B1: A-006 (human IgG1 format) (antibody, V domains shown)
VH: EVQLVESGGGLIQPGGSLRLSCAASGFTVSSNYMSWVRQAPGKGLEWVSVIYSGGSTYYADSVKGRFTISRDNSKNTLYLQMNSLRAEDTAVYYCARGNPYYYGDLQVNFDYWGQGTLVTVSS
VL: QAVVTQEPSLTVSPGGTVTLTCASSTGAVTSGYYPNWFQQKPGQAPRPLIYSTSNKHSWTPARFSGSLLGGKAALTLSGVQPDDEAEYYCLLYYGGDWVFGGGTKLTVL
notes: human IgG1 format
EC50 [1]: > 50 nM
percentage binding [2]: 3.04%
Kd [3]: 250 to 500 nM
percentage binding [4]: 2.59%
percentage binding [5]: 5.72%
percentage binding [6]: 2.31%
percentage binding [7]: 81.1%
percentage binding [8]: 75.3%
EC50 [9]: < 0.02 nM
Kd [10]: 1 to 10 nM
EC50 [11]: 10 to 50 nM

B5: A-013 (human IgG1 format) (antibody, V domains shown)
VH: EVQLVESGGGLIQPGGSLRLSCAASGFTVSSNYMSWVRQAPGKGLEWVSVIYSGGSTYYADSVKGRFTISRDNSKNTLYLQMNSLRAEDTAVYYCARGNPYYYGDLQVNFDYWGQGTLVTVSS
VL: QAVVTQEPSLTVSPGGTVTLTCASSTGAVTSAYYPNWFQQKPGQAPRALIYSTSNKHSWTPARFSGSLLGGKAALTLSGVQPEDEADYYCLLYYGGAWVFGGGTKLTVL
notes: human IgG1 format
EC50 [1]: > 50 nM
Kd [3]: 100 to 250 nM
EC50 [9]: < 0.02 nM
EC50 [11]: 10 to 50 nM

B7: A-022 (human IgG1 format) (antibody, V domains shown)
VH: EVQLLESGPGLVKPSQTLSLTCTVSGGSISSGGYYWSWIRQHPGKGLEWIGYIYYSGSTYYNPSLKSRVTISVDTSKNQFSLKLSSVTAADTAVYYCARASRSTDYYFDYWGQGTLVTVSS
VL: QPGLTQPPSMSYGLGQTATLTCTGNRNNIGDQGAAWLQQHQGHPPKLLSYRNNNGPSGISERLSASRSGNTASLTISGLQPEDEADYYCSAWDSSLRAWVFGGGTKLTVL
notes: human IgG1 format
EC50 [1]: 10 to 50 nM
EC50 [9]: < 0.02 nM
EC50 [11]: 10 to 50 nM

B10: A-007 (human IgG1 format) (antibody, V domains shown)
VH: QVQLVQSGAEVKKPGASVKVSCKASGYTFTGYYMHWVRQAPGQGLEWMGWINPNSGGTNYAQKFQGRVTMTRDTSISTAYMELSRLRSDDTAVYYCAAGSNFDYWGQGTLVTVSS
VL: QSALTQPASVSGSPGQSITIACTGSSSDIGSFSYVSWYQQRPGKAPTLIIYGVNNRPLGVSRRFSGSKSGNTASLSISGLQAEDEADYYCSSYTRRSTVIFGGGTKLTVL
notes: human IgG1 format
EC50 [1]: > 10 nM
percentage binding [2]: 13.2%
percentage binding [4]: 9.15%
percentage binding [5]: 34.2%
percentage binding [6]: 8.88%
percentage binding [7]: 82.3%
percentage binding [8]: 65.6%
EC50 [9]: < 0.02 nM
EC50 [11]: > 10 nM

B11: A-011 (human IgG1 format) (antibody, V domains shown)
VH: QVQLVESGGGVVQPGRSLRLSCAASGFTFSSYAMHWVRQAPGKGLEWVAVISYDGSNKYYADSVKGRFTISRDNSKNTLYLQMNSLRAEDTAVYYCAEGGALNYYGMDVWGQGTTVTVSS
VL: SSELTQDPGVSVALGQTVRITCQGDSLRHFYATWYQQKPGQAPILVIYGKNNRPSGIPDRFSGSSSEDTASLTITGAQAEDEADYYCQSRDPRNNHLIFGGGTKLIVL
notes: human IgG1 format
percentage binding [2]: 4.86%
Kd [3]: 250 to 500 nM
percentage binding [4]: 2.41%
percentage binding [5]: 3.4%
percentage binding [6]: 2.87%
percentage binding [7]: 6.95%
percentage binding [8]: 2.05%
EC50 [9]: < 0.02 nM
Kd [10]: 10 to 20 nM
EC50 [11]: > 50 nM

Next, values leading:

IC50 (read off the curve) [12]: ~2 nM
EC50 (read off the curve) [13]: ~0.01 nM
B2: B-005 (chain-swapped, human IgG1 format) (antibody, V domains shown)
VH: EVQLLESGGGLIQPGGSLRLSCAVSGFTVSSNYMSWVRQAPGKGLEWVSVIYSGGSTYYADSVKGRFTISRDNSKNTLYLQMNSLRAEDTAVYYCARGNPYYYGDLQVNFDYWGQGTLVTVSS
VL: QAVVTQEPSLTVSPGGTVTPTCGSSTGAVTSGNLPNWFQQKPGQAPRALIYSTSNKHSWTPARISGSLLGGKAALTLSGVQPEDEAEYYCLLYYGGAWVFGGGTKLTVL
notes: VH of A-012 with VL of A-002; IgG1 format; also called B5; Chains-B-005

IC50 (read off the curve) [12]: ~2 nM
EC50 (read off the curve) [13]: ~0.009 nM
B3: B-003 (chain-swapped, human IgG1 format) (antibody, V domains shown)
VH: EVQLLESGGGLIQPGGSLRLSCAVSGFTVSSNYMSWVRQAPGKGLEWVSVIYSGGSTYYADSVKGRFTISRDNSKNTLYLQMNSLRAEDTAVYYCARGNPYYYGDLQVNFDYWGQGTLVTVSS
VL: QAVVTQEPSLTVSPGETVTLTCASSTGAVTSGYYPNWFQQRPGQAPRALIYSTSNKDSWTPARFSGSLLGGKAALTLSGVQPEDEAEYYCLLYYGGAWVFGGGTKLTVL
notes: VH of A-012 with VL of A-005; IgG1 format; also called B3; Chains-B-003

IC50 (read off the curve) [14]: ~4 nM
B4: B-008 (chain-swapped, human IgG1 format) (antibody, V domains shown)
VH: EVQLVESGGGLIQPGGSLRLSCAASGFTVSSNYMSWVRQAPGKGLEWVSVIYSGGSTYYADSVKGRFTISRDNSKNTLYLQMNSLRAEDTAVYYCARGNPYYYGDLQVNFDYWGQGTLVTVSS
VL: QAVVTQEPSLTVSPGGTVTPTCGSSTGAVTSGNLPNWFQQKPGQAPRALIYSTSNKHSWTPARISGSLLGGKAALTLSGVQPEDEAEYYCLLYYGGAWVFGGGTKLTVL
notes: VH of A-006 with VL of A-002; IgG1 format; also called B8; Chains-B-008

IC50 (read off the curve) [14]: ~3 nM
B6: B-007 (chain-swapped, human IgG1 format) (antibody, V domains shown)
VH: EVQLVESGGGLIQPGGSLRLSCAASGFTVSSNYMSWVRQAPGKGLEWVSVIYSGGSTYYADSVKGRFTISRDNSKNTLYLQMNSLRAEDTAVYYCARGNPYYYGDLQVNFDYWGQGTLVTVSS
VL: QAVVTQEPSLTVSPGGTVTLTCASSTGAVTSAYYPNWFQQKPGQAPRALIYSTSNKHSWTPARFSGSLLGGKAALTLSGVQPEDEADYYCLLYYGGAWVFGGGTKLTVL
notes: VH of A-006 with VL of A-013; IgG1 format; also called B7; Chains-B-007

EC50 [1]: < 10 nM
Kd [3]: > 500 nM
EC50 [9]: 0.02 to 0.05 nM
B8: A-024 (human IgG1 format) (antibody, V domains shown)
VH: QMQLVQSGAEVKKPGSSVKVSCKASGGTFSSYAISWVRQAPGQGLEWMGWISAYNGNTNYAQKLQGRVTMTTDTSTSTAYMELRSLRSDDTAVYYCASLGSYGYTGAFDIWGQGTMATVSS
VL: QSALTQPASVSGSPGQSITISCTGTSSDVGGYNYVSWYQQHPGKAPKLMIYEVSNRPSGVSNRFSGSKSGNTASLTISGLQAEDEADYYCSSYTSSSTLVVFGGGTKLTVL

Kd [3]: 250 to 500 nM
EC50 [9]: 0.05 to 1 nM
B9: A-034 (human IgG1 format) (antibody, V domains shown)
VH: QMQLVQSGGGLVKPGGSLRLSCAASGFTFSSYTMNWVRQAPGKGLEWVSSISSIGTYIYYADSVKGRFTISRDNAKNSLYLQMNSLRAEDTAVYYCARVLLSGSYYGYFDSWGQGTLVTVSS
VL: QSVLTQPPSVSGAPGQRVTISCTGSSSNIGAGYDVHWYQQLPGTAPKLFIYGNSNRPSGVPDRFSGSKSGTSASLAITGLQAEDEADYYCQSYDSSLSGYVFGTGTKVTVL
notes: human IgG1 format
